For this assay, the target named is T1, FKBP-NFAST (UniProt P62942 2-108).
T1 construct: Expressed in HEK293T cells; also called cmyc-FKBP-linker-NFAST; pAG149; not shown: c-myc tag
The assay can be described thus: split-FAST fluorescence complementation, confocal imaging of HEK293T cells, 100 nM rapamycin, HMBR or HBR-3,5DOM. Here is the method:
FIG. 5A-B show HEK293T cells co-expressing FKBP-NFAST and FRB-CFASTn (n=10 or 11) which were labeled with 5 μM HMBR (FIG. 5A) or 10 μM HBR-3,5DOM (FIG. 5B) and imaged before and after addition of 100 nM rapamycin. Scale bars 10 μm. […] Cells expressing FAST were used as control. HMBR concentration was 10 μM. Excitation at 488 nm at 6.3 kW/cm2. Six cells were analyzed per condition. […] Scale bars 20 μm. […] Scale bars 20 μm.

T1 sequence (P62942 other isoform, or with tags, fused parts or gaps): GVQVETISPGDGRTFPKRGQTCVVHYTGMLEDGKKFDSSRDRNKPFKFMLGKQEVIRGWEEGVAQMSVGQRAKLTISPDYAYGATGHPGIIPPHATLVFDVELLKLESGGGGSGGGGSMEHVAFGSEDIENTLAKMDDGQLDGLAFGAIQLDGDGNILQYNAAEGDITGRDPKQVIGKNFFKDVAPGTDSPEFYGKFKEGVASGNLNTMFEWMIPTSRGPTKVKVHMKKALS

B1: FRB-CFAST10 (other)
chain: ILWHEMWHEGLEEASRLYFGERNVKGMFEVLEPLHAMMERGPQTLKETSFNQAYGRDLMEAQEWCRKYMKSGNVKDLTQAWDLYYHVFRRISKSGGGGSGGGGSGDSYWVFVKR
notes: also called FRB-CFASTn (n=10)
In the case of B1, the binding result is listed as “binds”.

B2: FRB-CFAST11 (other)
chain: ILWHEMWHEGLEEASRLYFGERNVKGMFEVLEPLHAMMERGPQTLKETSFNQAYGRDLMEAQEWCRKYMKSGNVKDLTQAWDLYYHVFRRISKSGGGGSGGGGSGDSYWVFVKRV
notes: Expressed in HEK293T cells; also called cmyc-FRB-linker-CFAST(115-125); pAG152; not shown: c-myc tag
Take B2: the binding result was “binds”.

These data come from patent publication US20220169682A1 (PARIS SCIENCES ET LETTRES, published 2022).
